Reference: patent US20150023967A1 (published 2015)

Assays:
BCMA 101 x CD3 = assay: SPR (Biacore)
BCMA 102 x CD3 = assay: SPR (Biacore)

- Kd (BCMA 101 x CD3): 0.5 nM
- Kd (BCMA 102 x CD3): 0.6 nM
B1: Human BCMA (other)
chain (part 1 of 2): MLQMAGQCSQNEYFDSLLHACIPCQLRCSSNTPPLTCQRYCNASVTNSVKGTNASGGGGSEAHKSEIAHRYNDLGEQHFKGLVLIAFSQYLQKCSYDEHAKLVQEVTDFAKTCVADESAANCDKSLHTLFGDKLCAIPNLRENYGELADCCTKQEPERNECFLQHKDDNPSLPPFERPEAEAMCTSFKENPTTFMGHYLHEVARRHPYFYAPELLYYAEQYNEILTQCCAEADKESCLTPKLDGVKEKALVSSVRQRMKCSSMQKFGERAFKAWAVARLSQTFPNADFAEITKLATDLTKVNKECCHGDLLECADDRAELAKYMCENQATISSKLQTCCDKPLLKKAHCLSEVEHDTMPADLPAIAADFVEDQEVCKNYAEAKDVFLGTFLYEYSRRHPDYSVSLLLRLAKKYEATLEKCCAEANPPACYGTVLAEFQPLVEEPKNLVKTNCDLYEKLGEYGFQNAILVRYTQKAPQVSTPTLVEAARNLGRVGTKCCTLPEDQRLPCVEDYLSAILNRVCLLHEKTPVSEHVTKCCSGSLVERRPCFSALTVDETYVPKEFKAETFTFHSDICTLPEKEKQIKKQTALAELVKHKPKATAEQLKTVMDDFAQFLDTCCKAADKDTCFSTEGPNLVTRCKDALA
chain (part 2 of 2): SGHHGGHHGGHH
